This is an account of results in patent publication US20180023057A1.

The experiment has as its target E-cadherin on human iPS cells (TkDN4-M) (human) (UniProt P12830). Put plainly: cell-based or functional assay.

E-cadherin on human iPS cells (TkDN4-M) (human), sequence (P12830 155-882 limits assumed): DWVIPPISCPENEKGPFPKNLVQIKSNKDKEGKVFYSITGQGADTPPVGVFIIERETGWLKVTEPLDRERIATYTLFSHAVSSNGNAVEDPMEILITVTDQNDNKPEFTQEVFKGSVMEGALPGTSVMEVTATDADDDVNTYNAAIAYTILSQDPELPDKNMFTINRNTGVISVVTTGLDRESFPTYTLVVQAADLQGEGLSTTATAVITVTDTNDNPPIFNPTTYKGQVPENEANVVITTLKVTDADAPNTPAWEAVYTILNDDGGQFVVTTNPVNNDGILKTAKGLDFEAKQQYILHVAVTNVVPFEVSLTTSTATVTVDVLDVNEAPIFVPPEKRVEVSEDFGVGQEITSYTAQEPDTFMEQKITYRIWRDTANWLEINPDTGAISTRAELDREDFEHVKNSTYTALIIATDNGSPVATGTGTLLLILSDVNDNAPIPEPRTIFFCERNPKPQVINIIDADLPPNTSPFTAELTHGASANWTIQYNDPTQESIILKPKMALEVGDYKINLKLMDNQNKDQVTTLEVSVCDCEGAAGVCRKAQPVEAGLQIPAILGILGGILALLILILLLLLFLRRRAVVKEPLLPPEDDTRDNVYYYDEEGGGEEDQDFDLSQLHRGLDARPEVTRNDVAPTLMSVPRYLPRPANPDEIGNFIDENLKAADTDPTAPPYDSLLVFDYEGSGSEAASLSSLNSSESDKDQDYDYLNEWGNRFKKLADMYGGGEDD

B1: E-cadherin-Fc fusion protein (Fc fusion, not shown: a dimerising Fc or GST)
chain: DWVIPPISCPENEKGEFPKNLVQIKSNRDKETKVFYSITGQGADKPPVGVFIIERETGWLKVTQPLDREAIAKYILYSHAVSSNGEAVEDPMEIVITVTDQNDNRPEFTQPVFEGFVAEGAVPGTSVMKVSATDADDDVNTYNAAIAYTIVSQDPELPHKNMFTVNRDTGVISVLTSGLDRESYPTYTLVVQAADLQGEGLSTTAKAVITVKDINDNAPVFNPSTYQGQVPENEVNARIATLKVTDDDAPNTPAWKAVYTVVNDPDQQFVVVTDPTTNDGILKTAKGLDFEAKQQYILHVRVENEEPFEGSLVPSTATVTVDVVDVNEAPIFMPAERRVEVPEDFGVGQEITSYTAREPDTFMDQKITYRIWRDTANWLEINPETGAIFTRAEMDREDAEHVKNSTYVALIIATDDGSPIATGTGTLLLVLLDVNDNAPIPEPRNMQFCQRNPQPHIITILDPDLPPNTSPFTAELTHGASVNWTIEYNDAAQESLILQPRKDLEIGEYKIHLKLADNQNKDQVTTLDVHVCDCEGTVNNCMKAGIVAAGLQV
B1 showed a diameter of hiPS cell aggregates on Day 5 of culture in Essential 8, E-cadherin-Fc 50 or 100 µg/ml for the first 48 hours of 500 µm; a sizes of hiPS cell aggregates 48 hours after the E-cadherin-Fc treatment, 5 µg/ml (without E-cadherin-Fc: 1000 to 3000 µm) of 300 to 700 µm; a sizes of hiPS cell aggregates 48 hours after the E-cadherin-Fc treatment, 10 µg/ml of 200 to 400 µm; a sizes of hiPS cell aggregates 48 hours after the E-cadherin-Fc treatment, 20 µg/ml of 100 to 500 µm. For the same molecule, the sizes of hiPS cell aggregates 48 hours after the E-cadherin-Fc treatment, 50 µg/ml was in the range of 100 to 300 µm and the sizes of hiPS cell aggregates 48 hours after the E-cadherin-Fc treatment, 100 µg/ml is 150 to 700 µm.
